Assay results from US12135332B2, “Mutant human estrogen receptor-α and methods of use thereof” (Case Western Reserve University, priority 2018, dated 2024).

Biological target: ERE-DNA
Experiment: Fluorescence anisotropy DNA-binding assay
Settings: 6-FAM-labeled ERE-DNA 20 nM, E2-bound hERα^CDE; read-out: DNA-binding affinity Kd
From the text: FIGS. 8(a)-(e) are graphs relating to the purification and characterization of recombinant hERα. […] FIGS. 8(b) and (c) show the purification of hERα^CDE, specifically size exclusion chromatography of hERα^CDE in the absence (b) or presence (c) of ERE-DNA. Shown are the absorbance at 260 nm and 280 nm of hERα^CDE in the presence of estradiol and a coactivator TIF2 peptide. […] Data of 2.8-μM hERα^CDE in the presence of E2 were used as a saturation level and free 20-nM DNA data as a baseline. […] The binding of the hERα to a coactivator TIF2 peptide (sequence […]) (SEQ ID NO: 2) in the presence of E2 and ERE-DNA was measured by surface plasmon resonance (SPR). […]
To further assess the impact of this substitution on the receptor's ability to bind ERE-DNA, a biochemical DNA-binding assay was performed by detecting fluorescence anisotropy of 6-carboxyfluorescein-labeled ERE-DNA in the presence of increasing concentrations of the E2-bound hERα^CDE. […]
The fluorescence-conjugated double-strand ERE-DNA was prepared by annealing 6-FAM (6-carboxyfluorescein) 5′-labeled strands (5′-[…]-3′ (SEQ ID NO: 44) and 5′-[…]-3′ (SEQ ID NO: 45); IDT, Inc) in a buffer containing 10 mM CHES (pH 9.5), 50 mM KCl, 50 mM NaCl, 4 mM MgCl2, 50 mM arginine, 50 mM glutamic acid, 5 mM TCEP, 5% glycerol with 10 μM ZnCl2, and 10 μM E2. […]

B1: WT: recombinant wild-type human ERα segment with DBD and LBD, residues E181-P552 (protein)
chain: ETRYCAVCNDYASGYHYGVWSCEGCKAFFKRSIQGHNDYMCPATNQCTIDKNRRKSCQACRLRKCYEVGMMKGGIRKDRRGGRMLKHKRQRDDGEGRGEVGSAGDMRAANLWPSPLMIKRSKKNSLALSLTADQMVSALLDAEPPILYSEYDPTRPFSEASMMGLLTNLADRELVHMINWAKRVPGFVDLTLHDQVHLLECAWLEILMIGLVWRSMEHPGKLLFAPNLLLDRNQGKCVEGMVEIFDMLLATSSRFRMMNLQGEEFVCLKSIILLNSGVYTFLSSTLKSLEEKDHIHRVLDKITDTLIHLMAKAGLTLQQQHQRLAQLLLILSHIRHMSNKGMEHLYSMKCKNVVPLYDLLLEMLDAHRLHAP
**Q.** B1 was tested. Which Kd did it give?
**A.** 9.2 nM
